“Also recorded” adds a separate entry of the source.
B1: 54H7: mouse hybridoma anti-O1 antigen antibody (Ms IgG3), VH SEQ ID NO:47, VL SEQ ID NO:48 (antibody, V domains shown)
VH: QVHLQQPGSELVRPGASVTLSCKASGYTFTNYWMQWVKQRPGQGLEWIGNIYPGSGNTNYDEKFRSKATLTVDTSSSTAYMHLTSLTSEDSAVYYCTRNWNFDYWGQGTTLTVSS
VL: DIQMTQSPSSLSASLGERVSLTCRASQDIGSSLNWLQQEPDGTIKRLIYATSSLDSGVPKRFSGSRSGSEYSLTISSLEAEDFVDYYCLQHTDSPYTFGGGTKLELK
modifications: 54H7 VH; 54H7 VL Amino Acid Sequence
B2: KPE33: human anti-K. pneumoniae O1 antigen antibody, VH SEQ ID NO:8, VL SEQ ID NO:9, isolated as IgG2 from donor #262 (antibody, V domains shown)
VH: EVQLVESGGALVQPGGSLRLSCAVSGFIFDDYAIHWVRRAPGKGLEWVSGIAWKSGATNYADSVKGRFAISRDNSKKSMYLQMNSLGTEDTALYYCTRRRASGDDTFYYFDYWGQGTLVTVSS
VL: EIVLTQSPATLSLSPGERATLSCRASQNVNTNLAWYQQRPGQSPRLLIYDASTRAAGLPARFSGSGSGTDFTLTISSLEPEDFAVYYCQQCTNWRYTFGQGTKLEIK
modifications: KPE33 VH Amino Acid Sequence; KPE33 VL Amino Acid Sequence

Experiments:
LPS = experiment: endotoxemia LPS-induced sepsis model, survival; format: in vivo, Balb/c mice; conditions: 1 mg/kg or 5 mg/kg, 24 hours prior to LPS, vs control IgG (R347)
Method: In order to determine the protective effect of anti-O1 antigen antibodies, female mice (Balb/c), aged 6-8 weeks, were sensitized with D-galactose (D-Gal, 12 mg/kg), and subsequently challenged intraperitoneally (ip) with 10-50 ng of LPS 24 hours after anti-O1 antigen antibody administration. Antibody was administered at doses of 0.2 mg/kg, 1 mg/kg, or 5 mg/kg. Mouse survival was monitored up to 6 days post LPS challenge.

Kp8045 Klebsiella = experiment: pneumonia model, KPE33 synergy with meropenem; format: in vivo, Klebsiella pneumoniae; conditions: antibody 1 mpk, meropenem 2.5 mpk, post challenge
Method: The synergy of anti-O1 antigen antibodies and antibiotic was also assessed in the pneumonia and bacteremia mouse models.
In the pneumonia experiments, C57BL/6 mice were inoculated intranasally with 1e4 to 1e8 CFU of the Kp8045 Klebsiella. (See FIG. 4A.) In the bacteremia experiments, mice were inoculated with Kp8561 Klebsiella. (See FIG. 4B.) Both sub-therapeutic dosage of antibodies (1 mpk for Kp8045 and 2.5 mpk for Kp8561) and meropenem antibiotic (2.5 mpk for Kp8045 and 5 mpk for Kp8561) were administered post bacterial challenge. Mouse survival was monitored daily until up to day 8.

ESBL strain Kp8561 (O1) = experiment: lethal bacteremia model, survival; format: in vivo, Klebsiella pneumoniae; conditions: C57BL/6 mice, 1.5, 5, 15 mg/kg one hour post challenge
Method: In a bacteremia model, C57BL/6 mice were inoculated intraperitoneally with 1e8 CFU extended spectrum beta lactamase (ESBL) clinical isolate strain Kp8561 (O1). Anti-K. pneumoniae monoclonal antibody KPE33 at 1.5, 5, and 15 mg/kg and human IgG1 control antibody at 45 mg/kg were given one hour post bacterial challenge (therapeutic dosing). Mouse survival was monitored daily until up to day 8.

[1] = test system: K. pneumoniae and S. aureus SF8300 (USA300); experiment: K. pneumoniae and S. aureus co-infection pneumonia model; format: in vivo, Klebsiella pneumoniae and Staphylococcus aureus; conditions: C57BL/6 mice, 0.5 mL ip, 24 hours prior to co-infection
Method: In order to evaluate the efficacy of anti-O1 antigen antibodies in co-infection, female 7-8 week old C57BL/6 mice were briefly anesthetized in 3% Isoflurane and 50 μl of bacterial suspension was placed on the nares. Animals were inoculated with 5e7 CFU S. aureus SF8300 (USA300) alone or in combination with 1.5e2 CFU of K. pneumoniae and monitored up to 7 days for survival studies. For organ burden studies, lungs and spleens were harvested at 24 or 48 hours post challenge as described in Example 5 above. For protection studies, mice were passively immunized (0.5 mL, ip) with KPE33 or control mAb before lethal bacterial challenge. All data were plotted in Prism.

[2] = test system: K. pneumoniae carbapenem-resistant (CRE) strain Kp1131115 (O1); experiment: acute lethal pneumonia model, survival; format: in vivo, Klebsiella pneumoniae; conditions: C57BL/6 mice, antibody one hour post bacterial challenge, vs human IgG1 control (R347)
Method: (§1) In an acute pneumonia model, C57BL/6 mice were inoculated intranasally with 1e4 to 1e8 CFU of the multi-drug resistant Klebsiella pneumoniae carbapenam resistant (CRE) clinical isolate strain KP1131115 (O1). Anti-K. pneumoniae monoclonal antibody KPE33 at 0.2, 1, and 5 mg/kg and human IgG1 control antibody at 5 mg/kg were given one hour post bacterial challenge (therapeutic dosing). Mouse survival was monitored daily until up to day 8.
as §1, with “Additionally, in an” for “In an”, “monoclonal antibodies […] and […]” for “monoclonal antibody KPE33”, “at 0.2” for “at 0.2, 1,”, “and 1” for “and 5”
KPE33 or KPE33-V-2016 were administered at a dose of 6 mg/kg 1 hour post bacterial infection with a Klebsiella pneumoniae carbapenam resistant strain.

[3] = test system: Klebsiella pneumoniae of the LPS-O1 serotype; experiment: primary screening, binding to whole bacteria
Text: KPA27 and KPE33 were isolated from the peripheral blood of two different immune donors: #487 and #262, respectively. […] KPA27 and KPE33 were isolated from immune donors as IgG2 antibodies.
KPB202 and KPJ4 were isolated from tonsillar B cells of two different donors: T6 (KPB202) and T8 (KPJ4). […] KPB202 and KPJ4 were isolated from donors as IgG1 and IgG2 antibodies, respectively.

Molecule | survival, endotoxemia model (LPS) | survival, combination with meropenem, pneumonia Kp8045 (Kp8045 Klebsiella) | survival, lethal bacteremia Kp8561 (ESBL strain Kp8561 (O1)) | survival in lethal co-infection [1] | survival, lethal pneumonia Kp1131115 [2] | binding to bacteria in primary screening [3]
B1 | protects mice | – | – | – | – | –
B2 | – | significant synergy and better protection than monotherapy | protect mice from extended spectrum beta-lactamase (ESBL) strain Kp8561 | rescued the mice | protect mice from lethal bacterial challenge; also recorded: dose dependently enhanced survival | bind to Klebsiella pneumoniae of the LPS-O1 serotype
